In paper PMC12519218 (2025):

B1: ATRAP-HA [not stated] / GST-AP4μ^160–453 [not stated] (parent complex)
chain 1: MELPAVNLKVILLGHWLLTTWGCIVFSGSYAWANFTILALGVWAVAQRDSIDAISMFLGGLLATIFLDIVHISIFYPRVSLTDTGRFGVGMAILSLLLKPLSCCFVYHMYRERGGELLVHTGFLGSSQDRSAYQTIDSAEAPADPFAVPEGRSQDARGY
chain 2: QQSKVAPSSAASRPVLSSRSDQSQKNEVFLDVVERLSVLIASNGSLLKVDVQGEIRLKSFLPSGSEMRIGLTEEFCVGKSELRGYGPGIRVDEVSFHSSVNLDEFESHRILRLQPPQGELTVMRYQLSDDLPSPLPFRLFPSVQWDRGSGRLQVYLKLRCDLLSKSQALNVRLHLPLPRGVVSLSQELSSPEQKAELAEGALRWDLPRVQGGSQLSGLFQMDVPGPPGPPSHGLSTSASPLGLGPASLSFELPRHTCSGLQVRFLRLAFRPCGNANPHKWVRHLSHSDAYVIRI

Variants of: B1
Test: GST pull-down, immunoblot quantification; bound protein normalized to the 2% loading; sum of both groups normalized to 1 in each replicate; n = 4, mean ± SD; parent: 0.71; read off a plot

| response | Variant |
| --- | --- |
| ~0.29 | chain 1 Y133A |
